The results in this text go back to patent CN117736316A.

For this test, the target named is HIS-SFTSV-NP抗原 (recombinant SFTSV NP antigen expressed in E. coli BL21(DE3) from pET-30a) (新布尼亚病毒 (SFTSV)). In words: indirect ELISA, NP antigen coated.

B1: 单克隆抗体anti-SFTSV-NP-mab1 (antibody, V domains shown)
VH: EVQLEESGGGLVQPGGSRKLSCAVSGFTFSNFGIHWVRQAPEKGLEWVAYISSGGTTIYYADTVKGRFTISRDNPMNTLFLQMTSLRSEDTAMYHCARSDYFGMMDYWGQGTSVTVSS
VL: DIVITQTPSSLSASLGDRVTISCRASQDIRNYLNWYQQKPDGTVKLLVYYTSRLHSGVPSRFSGSGSGTDFSLTISNLEQEDIATYFCQQAHTLLTFGAGTKLEIK
For B1, the 工作浓度 came out at 15.6 ng/mL and the 检测限 (of NP protein) is 1.95 ng/mL.
